The text below walks through data of PMC4822561, “Structure of a quinolone-stabilized cleavage complex of topoisomerase IV from Klebsiella pneumoniae and comparison with a related Streptococcus pneumoniae complex” (Acta Crystallographica. Section D, Structural Biology, 2016).

B3: S. pneumoniae topoisomerase IV ParC55 (domain or fragment)
chain: MSNIQNMSLEDIMGERFGRYSKYIIQDRALPDIRDGLKPVQRRILYSMNKDSNTFDKSYRKSAKSVGNIMGNFHPHGDSSIYDAMVRMSQNWKNREILVEMHGNNGSMDGDPPAAMRYTEARLSEIAGYLLQDIEKKTVPFAWNFDDTEKEPTVLPAAFPNLLVNGSTGISAGYATDIPPHNLAEVIDAAVYMIDHPTAKIDKLMEFLPGPDFPTGAIIQGRDEIKKAYETGKGRVVVRSKTEIEKLKGGKEQIVITEIPYEINKANLVKKIDDVRVNNKVAGIAEVRDESDRDGLRIAIELKKDANTELVLNYLFKYTDLQINYNFNMVAIDNFTPRQVGIVPILSSYIAHRREVILARSRFDKEKAEKRLHIVEGLIRVISILDEVIALIRASENKADAKENLKVSYDFTEEQAEAIVTLQLYRLTNTDVVVLQEEEAELREKIAMLAAIIGDERTMYNLMKKELREVKKKFATPRLSSLEDTAKALE
notes: ParC breakage-reunion domain (ParC55), S. pneumoniae isolate 7785 (St George's Hospital); two residues between ParC and the His6 tag; also called ParC N-terminal domain; ParC subunit; source: E. coli BL21(λDE3) pLysS, pET-29a (C-terminal His6); purification protocol in the Supporting Information

Series [1] addresses B3. Description: crystal structure; S. pneumoniae ParC55:ParE30:18-mer E-site DNA 1:1:1.2 at 4 mg/ml, 2 mM levofloxacin, 10 mM MgCl2; capillary counter-diffusion, 304 K; 2.9 Å, space group P3(1)21. The settings on record: both partners purified.
Series [2] deals with the molecule itself. Description: crystal structure; K. pneumoniae ParE-ParC fusion (4.5 mg/ml) co-crystallised with pre-cut 34-mer E-site DNA (1:1.2 protein:DNA), 2 mM levofloxacin, 10 mM MgCl2; vapour diffusion, 298 K; 3.35 Å, space group P2(1).
Series [3] deals with the molecule itself. Description: crystal structure; S. pneumoniae ParC55:ParE30:18-mer E-site DNA 1:1:1.2 at 4 mg/ml, 2 mM levofloxacin, 10 mM MgCl2; capillary counter-diffusion, 304 K; 2.9 Å, space group P3(1)21.

B1: S. pneumoniae topoisomerase IV ParE30 (domain or fragment)
chain: KNKKDKGLLSGKLTPAQSKNPAKNELYLVEGDSAGGSAKQGRDRKFQAILPLRGKVINTAKAKMADILKNEEINTMIYTIGAGVGADFSIEDANYDKIIIMTDADTDGAHIQTLLLTFFYRYMRPLVEAGHVYIALPPLYKMSKGKGKKEEVAYAWTDGELEELRKQFGKGATLQRYKGLGEMNADQLWETTMNPETRTLIRVTIEDLARAERRVNVLMGDKVEPRRKWIEDNVKFTLEEATVF
notes: ParE TOPRIM domain (ParE30), S. pneumoniae isolate 7785 (St George's Hospital); the limits fit the printed Glu474 and Glu475; also called ParE C-terminal domain; ParE TOPRIM domain; source: E. coli BL21(λDE3) pLysS, pET-19b (N-terminal His10); purification protocol in the Supporting Information
Regarding B1, the binding result in series [1] is “binds”.

B2: K. pneumoniae topoisomerase IV ParC breakage-reunion domain (ParC55; residues 1–490) (domain or fragment, K. pneumoniae (strain ATCC 35657))
chain: MSDMAERLALHEFTENAYLNYSMYVIMDRALPFIGDGLKPVQRRIVYAMSELGLNASAKFKKSARTVGDVLGKYHPHGDSACYEAMVLMAQPFSYRYPLGDGQGNWGAPDDPKSFAAMRYTESRLSKYAELLLSELGQGTVDWVPNFDGTLQEPKMLPARLPNILLNGTTGIAVGMATDIPPHNLREVAKAAITLIEQPKTTLDELLDIVQGPDFPTEAEIITSRAEIRKIYQNGRGSVRMRAVWSKEDGAVVITALPHQVSGAKVLEQIAAQMRNKKLPMVDDLRDESDHENPTRLVIVPRSNRVDMEQVMNHLFATTDLEKSYRINLNMIGLDGRPAVKNLLEILSEWLVFRRDTVRRRLNHRLEKVLKRLHILEGLLVAFLNIDEVIEIIRTEDEPKPALMSRFGISETQAEAILELKLRHLAKLEEMKIRGEQSELEKERDQLQAILASERKMNNLLKKELQADADAFGDDRRSPLHEREEAKAMS
notes: ParC breakage-reunion domain (ParC55), K. pneumoniae strain ATCC 35657, residues 1-490; In the crystal this stretch was joined on one chain with ParE 390-631 (see m1: M-ParE(390-631)-EF-ParC(1-490)-His6); written alone for the pair rows; also called ParC NTD 1–490; ParC subunit; source: E. coli BL21(λDE3) pLysS, pET-29a; purification protocol in the Supporting Information
One may read the stoichiometry N as the number of molecules, sites or subunits per partner or assembly. For B2, in series [2], the “stoichiometry N” value stood at 2.
In the case of B3, in series [3], the binding result is reported as “binds”.
